Assay [1] has as its target T1, recombinant His-tagged full-length pneumococcal surface protein A (PspA) from strain TCH8431 (serotype 19A) (Streptococcus pneumoniae strain TCH8431 …).
T1 construct: range 1-725; also called recombinant PspA
The experiment in a line: ELISA on coated recombinant PspA, non-linear regression fit. For orientation: ELISA stands for enzyme-linked immunosorbent assay.

In assay [2] the target is T2, MBP-PspA fragment 1-438 fusion protein (Streptococcus pneumoniae strain TCH8431 …, UniProt P0AEX9 27-392 = MBP).
T2 construct: not shown: C-terminal His-tag encoded by the reverse primer PspA438-R
The experiment in a line: ELISA on coated MBP-PspA fragment, OD405.

The target in assay [3] is T3, MBP-PspA fragment 1-512 fusion protein (Streptococcus pneumoniae strain TCH8431 …, UniProt P0AEX9 27-392 = MBP).
T3 construct: not shown: C-terminal His-tag encoded by the reverse primer PspA512-R
The experiment in a line: ELISA on coated MBP-PspA fragment, OD405.

Assay [4] addresses T4, PspA protein of pneumococcal strain TCH8431 (serotype 19A), native, in lysates or on whole bacteria (Streptococcus pneumoniae strain TCH8431 …).
T4 construct: whole, on cells; also called PspA protein from strain TCH8431
The experiment in a line: ELISA on plates coated with fixed whole bacteria, TCH8431 (19A), OD405.

Usually EC50 stands for the midpoint of the concentration-response curve. By EC50 (read off the curve) is commonly meant the concentration at which the effect is half-maximal. A high value points to a less potent agent.

B1: human monoclonal antibody PspA16 (antibody, V domains shown)
VH: QVQLVQSGPDVKKPGASVKVSCKTSGYTFTGYYMHWVRQAPGQGLEWMGWVNPNTGGTSYAQKFQGRVTVTRDTSISTVYMELSALGSDDTAIYFCARAWAPGAEYLHHWGQGTLVTVSS
VL: EIVMTQSPGTLSLSPGETATLSCRASQSVGSSYLAWYQQKPGQAPRLLIFGASNRATGIPVRFSASGSGTDFTLTISRLEPEDFAVYYCQQHDHSPFTFGPGTKVDLK
notes: also called mAb PspA16
As to B1, in assay [1], the concentration giving a half-maximal response (EC50) is 0.026 µg/mL. Further, the “EC50 (read off the curve)” value was around 0.04 µg/mL in assay [2], around 0.04 µg/mL in assay [3] and around 0.08 µg/mL in assay [4].

These data come from patent publication US20240117019A1 (UNIVERSITY OF GEORGIA RESEARCH FOUNDATION, published 2024).
